Test [1] has as its target human Fc receptor CD16-GST fusion protein (human) (UniProt P08637). In words: ALPHA competition assay: test antibody competes with biotinylated wild-type IgG1 (m7) for the receptor-GST fusion; panel title huCD16a V.
In test [2] the target is human Fc receptor CD64-GST fusion protein (human) (UniProt P12314). Description: ALPHA competition assay: test antibody competes with biotinylated wild-type IgG1 (m7) for the receptor-GST fusion; panel title huCD64 [continued) D].
Another test has as its target LINGO-1 (human) (UniProt Q96FE5). Description: Cell bridging assay; fit of an essentially flat control curve (see non_binding); the axis on the sheet has no unit, µg/mL is from paragraph 391.

IC50 and C (midpoint parameter of the printed 4-parameter fit) data for two substances are collected here from patent US20130323786A1.

Sequence of human Fc receptor CD16-GST fusion protein (human) (P08637 17-208): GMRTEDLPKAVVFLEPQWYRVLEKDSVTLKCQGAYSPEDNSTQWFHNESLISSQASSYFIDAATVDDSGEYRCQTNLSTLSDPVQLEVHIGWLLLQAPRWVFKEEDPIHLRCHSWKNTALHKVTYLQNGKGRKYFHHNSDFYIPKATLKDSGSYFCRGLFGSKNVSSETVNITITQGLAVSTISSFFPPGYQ
Sequence of human Fc receptor CD64-GST fusion protein (human) (P12314 16-292 limits assumed): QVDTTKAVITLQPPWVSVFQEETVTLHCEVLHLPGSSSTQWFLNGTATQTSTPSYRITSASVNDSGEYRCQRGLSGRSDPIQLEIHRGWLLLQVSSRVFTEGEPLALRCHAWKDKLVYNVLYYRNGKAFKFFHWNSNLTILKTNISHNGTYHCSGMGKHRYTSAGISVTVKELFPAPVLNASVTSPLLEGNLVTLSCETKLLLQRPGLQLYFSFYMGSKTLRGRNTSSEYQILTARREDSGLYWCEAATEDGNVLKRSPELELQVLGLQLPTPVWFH

In the case of agly 5c8 T299A (JF) (antibody), the IC50 came out at 62 µg/mL in test [1] and 25 µg/mL in test [2].
In the test with LINGO-1 (human), huIgG1 (antibody) registered a C (midpoint parameter of the printed 4-parameter fit) of 3.55 µg/mL.

One may read the IC50 as the midpoint of a concentration-inhibition curve.
